The test system of assay [1] is (Fucα1,6)GlcNAc-mAb2. Nature of the assay: Transglycosylation activity with sugar chain oxazoline [N3-PEG(3)]-MSG1(9)-Ox as donor. The assay is classed as biochemical. To be noted: donor [N3-PEG(3)]-MSG1(9)-Ox (8 eq.), enzyme 1.25 μg, 28° C., pH 7.5. As to the method: Transglycosylation activity was evaluated as follows. […] A sample was taken from each of the reaction solutions at 1, 2, 4, 6, and 24 hours after initiation of the reaction and analyzed for protein by a fully automated electrophoresis system as mentioned above. In the chromatogram obtained, an unreacted product and transglycosylated molecule, mAb2-(MSG1-N3)2 were confirmed as discrete peaks. The transglycosylation rate was calculated based on the peak-area ratio between the unreacted product and the transglycosylated molecule in accordance with the following expression.
Transglycosylation rate (%)=[[peak area of mAb2-(MSG1-N3)2-derived H chain]/{[peak area of (Fucα1,6)GlcNAc-mAb2-derived H chain]+[peak area of mAb2-(MSG1-N3)2-derived H chain]}]×100
Similarly, the transglycosylation rates of individual Endo-Si mutant enzymes at each time period for a reaction were calculated (Table 5).

For assay [2], the system named is (Fucα1,6)GlcNAc-mAb2. Nature of the assay: Transglycosylation activity with SGP as donor, in combination with Endo-M N175Q. The note with it: donor SGP (50 eq.), Endo-M N175Q 2.5 mU, Endo-Si enzyme 10 μg, 23° C., pH 7.5. The assay is classed as biochemical. As to the method:
Transglycosylation activity was evaluated as follows. A 50 mM (sodium) phosphate buffer (pH 7.5) solution (17 μL) containing (Fucα1,6)GlcNAc-mAb2 (0.5 mg), SGP (0.485 mg (50 eq.)), Endo-M N175Q (manufactured by Tokyo Kasei Kogyo Co., Ltd.) (2.5 mU) and each of various Endo-Si mutant enzymes (10 μg), was prepared and incubated at 23° C. A sample was taken from each of the reaction solutions at 2, 4, 6, 24, and 48 hours after initiation of the reaction and analyzed for protein by a fully automated electrophoresis system as mentioned above. In the chromatogram obtained, an unreacted product and a transglycosylated molecule, mAb2-(SG)2 are confirmed as discrete peaks. The transglycosylation rates were obtained based on the peak area ratio between the unreacted product and the transglycosylated molecule in accordance with the following expression.
Similarly, transglycosylation rates of individual Endo-Si mutant enzymes at each time period of a reaction were calculated (Table 6).

B1: Endo-Si T190Q (protein)
chain: MNKRLLVKRTFGCVCAAAILGVAPLSHPTIVEAREELKMPNGLEQSIADVEAKIDALTYLSKNSKDEFKHSMYEIPSNREHKPVSPKQALQNAKKADAQAERLAKMTIPKKEELKALEGPLYGGYFRTWQDKTSDPTETNKVNSFGELPKEVDLAFVFHDYTKDYSLFWEELATKQVPKLNKQGTRVIRQIPWRFLSGADHSDISADKEKFPNTEAGNKALAKAIVDEYVYKYNLDGLDIDIERDSVPKVNDKEDPEALARTVEVFKEIGKLIGANGADKSRLLIMDTTYTAEENPLIKETAQYLNLLLVQVYGFSGENGNYLHHKNILDETSSMEGRWQGYSKYIRPEQYMVGFSFYEEKDFNNRWKDINEEDPSDPHIGEKIQGTRAERYAKWQPKTGGLKGGLFSYAIDRDGVAQPKQKTEHPELDKIVKSEYKVSKALKKLMMTDDQYQPIDQSDFPDKALRESIIKQVGTRRGDLERFKGTLRLDNPEIKDLTGLNKLKRVAKLELINLPKITKIDKDDLPQNLKPLTDNQKSNLEIKGTYDDSKLYKDIPAFDLVISGLSGLESLDISGHQRDTLSGIDASTLPSLKAINISDNHFDLAQGTENRHILDTILATLAKNGASTASFDKQKPKGLYPESYSTAPLHLQVGQGKINVIDDLIFGTRTNQNTLINTENDFEAYKEQTIQGKPFIAPDYLYDNFKVSYKEYSASIVDSTLAETTDKTIDTAKAETYQVTVSNKDGKTVHSVKVIVGDEKPMMVNLAQDAKIIGTDNMTQSAKVFDGQKDQFLLSWNKDSSVIFELKTPGTAKHWRFFDDGKNDSVTLSVFKGDASNFETEKDKAENWVEITKDSRKNDDKVFSSPLEVDNAKYLKVTIKKEAKYIYFNELQILGYPGVVAKKTADDLRPTEADKSDDKSDKNDTEAK
modifications: Amino acid sequence of Endo-Si T190Q
On to B1, for which the Transglycosylation rate was found to be 97.2% in assay [1] (1 h); 91.8% in assay [1] (2 h); 81.8% in assay [1] (4 h); 76.7% in assay [1] (6 h); 32.6% in assay [1] (24 h); 13.3% in assay [2] (2 h). Also, the Transglycosylation rate is recorded as 27.8% in assay [2] (4 h), 43.2% in assay [2] (6 h), 93.8% in assay [2] (24 h) and 93.3% in assay [2] (48 h).

B2: Endo-Si D241M/E360Q (protein)
chain: MNKRLLVKRTFGCVCAAAILGVAPLSHPTIVEAREELKMPNGLEQSIADVEAKIDALTYLSKNSKDEFKHSMYEIPSNREHKPVSPKQALQNAKKADAQAERLAKMTIPKKEELKALEGPLYGGYFRTWQDKTSDPTETNKVNSFGELPKEVDLAFVFHDYTKDYSLFWEELATKQVPKLNKQGTRVIRTIPWRFLSGADHSDISADKEKFPNTEAGNKALAKAIVDEYVYKYNLDGLDIMIERDSVPKVNDKEDPEALARTVEVFKEIGKLIGANGADKSRLLIMDTTYTAEENPLIKETAQYLNLLLVQVYGFSGENGNYLHHKNILDETSSMEGRWQGYSKYIRPEQYMVGFSFYEQKDFNNRWKDINEEDPSDPHIGEKIQGTRAERYAKWQPKTGGLKGGLFSYAIDRDGVAQPKQKTEHPELDKIVKSEYKVSKALKKLMMTDDQYQPIDQSDFPDKALRESIIKQVGTRRGDLERFKGTLRLDNPEIKDLTGLNKLKRVAKLELINLPKITKIDKDDLPQNLKPLTDNQKSNLEIKGTYDDSKLYKDIPAFDLVISGLSGLESLDISGHQRDTLSGIDASTLPSLKAINISDNHFDLAQGTENRHILDTILATLAKNGASTASFDKQKPKGLYPESYSTAPLHLQVGQGKINVIDDLIFGTRTNQNTLINTENDFEAYKEQTIQGKPFIAPDYLYDNFKVSYKEYSASIVDSTLAETTDKTIDTAKAETYQVTVSNKDGKTVHSVKVIVGDEKPMMVNLAQDAKIIGTDNMTQSAKVFDGQKDQFLLSWNKDSSVIFELKTPGTAKHWRFFDDGKNDSVTLSVFKGDASNFETEKDKAENWVEITKDSRKNDDKVFSSPLEVDNAKYLKVTIKKEAKYIYFNELQILGYPGVVAKKTADDLRPTEADKSDDKSDKNDTEAK
modifications: Amino acid sequence of Endo-Si D241M/E360Q
On to B2, for which the Transglycosylation rate in assay [1] (1 h) was determined as 99.1%; in assay [1] (2 h), 99.0%; in assay [1] (4 h), 96.2%; in assay [1] (6 h), 95.5%; in assay [1] (24 h) it was 75.9%; in assay [2] (2 h) it was 11.9%. Further, the Transglycosylation rate worked out at 27.7% in assay [2] (4 h), 42.7% in assay [2] (6 h), 98.0% in assay [2] (24 h) and 98.7% in assay [2] (48 h).

B3: Endo-Si D241M/Q311L (protein)
chain: MNKRLLVKRTFGCVCAAAILGVAPLSHPTIVEAREELKMPNGLEQSIADVEAKIDALTYLSKNSKDEFKHSMYEIPSNREHKPVSPKQALQNAKKADAQAERLAKMTIPKKEELKALEGPLYGGYFRTWQDKTSDPTETNKVNSFGELPKEVDLAFVFHDYTKDYSLFWEELATKQVPKLNKQGTRVIRTIPWRFLSGADHSDISADKEKFPNTEAGNKALAKAIVDEYVYKYNLDGLDIMIERDSVPKVNDKEDPEALARTVEVFKEIGKLIGANGADKSRLLIMDTTYTAEENPLIKETAQYLNLLLVLVYGFSGENGNYLHHKNILDETSSMEGRWQGYSKYIRPEQYMVGFSFYEEKDFNNRWKDINEEDPSDPHIGEKIQGTRAERYAKWQPKTGGLKGGLFSYAIDRDGVAQPKQKTEHPELDKIVKSEYKVSKALKKLMMTDDQYQPIDQSDFPDKALRESIIKQVGTRRGDLERFKGTLRLDNPEIKDLTGLNKLKRVAKLELINLPKITKIDKDDLPQNLKPLTDNQKSNLEIKGTYDDSKLYKDIPAFDLVISGLSGLESLDISGHQRDTLSGIDASTLPSLKAINISDNHFDLAQGTENRHILDTILATLAKNGASTASFDKQKPKGLYPESYSTAPLHLQVGQGKINVIDDLIFGTRTNQNTLINTENDFEAYKEQTIQGKPFIAPDYLYDNFKVSYKEYSASIVDSTLAETTDKTIDTAKAETYQVTVSNKDGKTVHSVKVIVGDEKPMMVNLAQDAKIIGTDNMTQSAKVFDGQKDQFLLSWNKDSSVIFELKTPGTAKHWRFFDDGKNDSVTLSVFKGDASNFETEKDKAENWVEITKDSRKNDDKVFSSPLEVDNAKYLKVTIKKEAKYIYFNELQILGYPGVVAKKTADDLRPTEADKSDDKSDKNDTEAK
modifications: Amino acid sequence of Endo-Si D241M/Q311L
For the molecule B3, the Transglycosylation rate is 31.8% in assay [1] (1 h); 59.1% in assay [1] (2 h); 95.9% in assay [1] (4 h); 99.5% in assay [1] (6 h); 99.9% in assay [1] (24 h); 6.4% in assay [2] (2 h). For the same molecule, the Transglycosylation rate in assay [2] (4 h) stood at 13.7%; in assay [2] (6 h), 24.1%; in assay [2] (24 h) it was 79.7%; in assay [2] (48 h), 97.0%.
